# Publication PMC4876856
# Biological target: truncated rabbit TRPV2 (residues 56-560 and 581-721) (rabbit) (UniProt G1SNM3)
# Test: cryo-EM structure
substance,measurement,value
truncated rabbit TRPV2 (residues 56-560 and 581-721) (from UniProt G1SNM3 56-560; G1SNM3 581-721) (domain or fragment),stoichiometry N,4
